Consider eleven molecules from patent US20060024313A1, “Agents that disrupt dimer formation in DPP-IV family of prolyl dipeptidases” (priority 2004, published 2006).

Positions count from the first letter of the chain named. In names and notes the source's numbering stands. Several values for one entry are separate records, joined by “and”; a condition that tells them apart may be missing. Equal entries are not always repeated. Entries after “also recorded” stand apart in the source; their conditions may differ. Marks after values point to notes of the source that are not given here.

In one series the test system is DPP-IV. Briefly: Kinetic constant measurements with chromogenic substrate H-Gly-Pro-pNA. Format: biochemical, human. As to the method:
To measure the kinetic parameters, the chromogenic substrate H-Gly-Pro-pNA was utilized to initiate the reaction, which was monitored at OD 405 nm as a function of time (21). […] The initial rate was measured with less than 10% substrate depletion for the first 10 to 300 seconds. The steady-state parameters, kcat and Km, were determined from initial velocity measurements at 0.5 to 5 Km of the substrate concentrations. Lineweaver-Burk plots were analyzed using non-linear regression of the Michaelis-Menten equation. Correlation coefficients better than 0.99 were obtained throughout.

Series [1] is described as follows: Analytical ultracentrifugation (AUC): sedimentation velocity and equilibrium. Format: physicochemical. As to conditions: for quaternary structure (monomer/dimer) by AUC: PBS buffer where stated; for Stokes' radius (Rs): sedimentation velocity experiments. As to the method:
Buffer was changed using an Amicon device and DPP-IV proteins were allowed to equilibrate for at least four hours or longer as indicated in the text at 25° C. after buffer changes. The sedimentation coefficients (S) of the enzyme were estimated by a Beckman-Coulter XL-A analytical ultracentrifuge with an An60Ti rotor as described (25). Sedimentation velocity analysis was performed at 40,000 rpm at 25° C. with standard double sector aluminum centerpieces. The UV absorption of the cells was scanned every 5 min for 4 hours. Sedimentation equilibrium was performed at 20° C. with six-channel open centerpieces and then centrifuged at 12,000 rpm for 12 hours. The data from both sedimentation velocity and sedimentation experiments were analyzed with the SedFit version 8.7 program to obtain molecular weights and sedimentation coefficients (25). Sednterp version 1.07 program is used to obtain solvent density, viscosity, Stokes' radius (Rs) and anhydrous frictional ratio (f/fo).

Series [2] can be described thus: Size exclusion chromatography (gel filtration, Superdex 200). The series is classed as physicochemical. Conditions: gel filtration experiments; PBS buffer. The method, then: Chemical crosslinking in intact cells was conducted as described (24). Size exclusion chromatography was conducted at 4° C. Purified proteins (0.5 ml at a concentration of 5 uM) were applied to a Superdex 200 10/30 column (10×300-310 mm) pre-equilibrated with PBS. The sample was eluted with the same buffer at 0.3 ml/min and 0.25 ml fractions were collected. The Superdex 200 10/30 column was calibrated with the Stokes Radii of ferritin (6.1 nm), catalase (5.22 nm), aldolase (4.81 nm), albumin (3.55 nm), ovalbumin (3.05 nm) and chymotrypsinogen A (2.09 nm) from Amersham-Pharmacia.
(In general: Size exclusion chromatography separates by hydrodynamic size, large species first.)

Where [3] appears, read: High salt buffer, substrate H-Gly-Pro-pNA.
[4] abbreviates: PBS buffer, substrate H-Gly-Pro-pNA.
Setting [5] is: compared with wild type rDPP-IV.
[6] abbreviates: Table III, dimer form of the mutant.
Setting [7] is: Table III, monomer form of the mutant.
[8] abbreviates: values in text, monomeric mutants.

B1: H750E: DPP-IV mutant, H750 mutated to Glu; monomer (protein)
chain: SRKTYTLTDYLKNTYRLKLYSLRWISDHEYLYKQENNILVFNAEYGNSSVFLENSTFDEFGHSINDYSISPDGQFILLEYNYVKQWRHSYTASYDIYDLNKRQLITEERIPNNTQWVTWSPVGHKLAYVWNNDIYVKIEPNLPSYRITWTGKEDIIYNGITDWVYEEEVFSAYSALWWSPNGTFLAYAQFNDTEVPLIEYSFYSDESLQYPKTVRVPYPKAGAVNPTVKFFVVNTDSLSSVTNATSIQITAPASMLIGDHYLCDVTWATQERISLQWLRRIQNYSVMDICDYDESSGRWNCLVARQHIEMSTTGWVGRFRPSEPHFTLDGNSFYKIISNEEGYRHICYFQIDKKDCTFITKGTWEVIGIEALTSDYLYYISNEYKGMPGGRNLYKIQLSDYTKVTCLSCELNPERCQYYSVSFSKEAKYYQLRCSGPGLPLYTLHSSVNDKGLRVLEDNSALDKMLQNVQMPSKKLDFIILNETKFWYQMILPPHFDKSKKYPLLLDVYAGPCSQKADTVFRLNWATYLASTENIIVASFDGRGSGYQGDKIMHAINRRLGTFEVEDQIEAARQFSKMGFVDNKRIAIWGWSYGGYVTSMVLGSGSGVFKCGIAVAPVSRWEYYDSVYTERYMGLPTPEDNLDHYRNSTVMSRAENFKQVEYLLIHGTADDNVHFQQSAQISKALVDVGVDFQAMWYTDEDHGIASSTAHQEIYTHMSHFIKQCFSLP
As usually defined, the Km is the substrate concentration at which the rate is half of its maximum. Take B1: in the series with DPP-IV (setting [3]), the Km stood at 1090 µM and the kcat was found to be 2.1 s⁻¹. Besides, in the series on DPP-IV (setting [4]), the Km was found to be 956 µM and the kcat was 2.6 s⁻¹. In the series with DPP-IV (setting [5]), the decrease in kcat is 30 fold and the “increase in Km” value is on record as 10 fold. Further, the “AUC analysis or catalytic activities in low salt buffer” value in the series with DPP-IV (low salt buffer compared to PBS buffer (data not shown)) is given as “no differences”. Moreover, in series [1] (High salt buffer), the “Sedimentation coefficient (s20, w)” value stood at 3.3 S and the “Stokes' radius (Rs)” value is reported as 3.7^b nm. In series [1] (High salt buffer (0.5 M sodium sulfate)), the “quaternary structure (subunit composition) by sedimentation velocity” value is reported as “monomer”. In addition, in series [1] (PBS buffer), the “Anhydrous frictional ratio (f/fo)” value was determined as 1.3; the “Sedimentation coefficient (s20, w)” value is recorded as 5.5 S; the “Stokes' radius (Rs)” value is 4.0^b nm. For the same molecule, in series [1], the “quaternary structure (monomer/dimer) by AUC” value is on record as “consists only of monomer; also recorded: nearly exclusive monomers”. Also, the “Stokes' radius (Rs)” value in series [2] is 4.6 nm and 4.6^a nm.

B2: 730A: DPP-IV C-terminal loop mutant, F730 substituted with Alanine (protein)
chain: B1 chain with F692A, E712H
Consider B2, for which, in the series on DPP-IV (setting [6]), the Km amounted to 56.3 µM and the kcat stood at 27.9 s − 1. For the same molecule, in the series on DPP-IV (setting [7]), the Michaelis-Menten constant (Km) is 53.7 µM and the kcat is recorded as 0.2 s − 1. For the same molecule, the “quaternary structure (monomer/dimer) by AUC” value in series [1] is “mixture with both monomers and dimers”.

B3: H750A monomer: monomer of H750A DPP-IV separated by gel filtration (protein)
chain: B1 chain with E712A
Regarding B3, in the series on DPP-IV (setting [4]), the Km stood at 64 µM and the kcat came out at 1.4 s⁻¹. For the same molecule, in the series with DPP-IV (setting [5]), the decrease in kcat is recorded as 60 fold. For the same molecule, in series [1] (High salt buffer), the “Sedimentation coefficient (s20, w)” value was determined as 3.3 S and the “Stokes' radius (Rs)” value is on record as 3.7^b nm. Also, in series [1] (PBS buffer), the “Anhydrous frictional ratio (f/fo)” value amounted to 1.3; the “Sedimentation coefficient (s20, w)” value was found to be 5.5 S; the “Stokes' radius (Rs)” value is listed as 4.1^b nm. The “Stokes' radius (Rs)” value in series [2] is reported as 4.6^a nm.

B4: 735A: DPP-IV C-terminal loop mutant, Y735 substituted with Alanine (protein)
chain: B1 chain with Y697A, E712H
Take B4: in the series on DPP-IV (setting [7]), the Km amounted to 88.6 µM and the kcat was 0.05 s − 1. Also, in series [1], the “quaternary structure (monomer/dimer) by AUC” value is on record as “monomers”.

B5: 713A: DPP-IV C-terminal loop mutant, F713 substituted with Alanine (protein)
chain: B1 chain with F675A, E712H
Regarding B5, the Km in the series with DPP-IV (setting [7]) worked out at 50.1 µM; in the series on DPP-IV (setting [8]), 51 µM. The results for the kcat with DPP-IV (setting [7]) and in the series with DPP-IV (setting [8]) were 1.8 s − 1 and 1 S^−1, respectively. Further, in series [1] (listed as F713A), the “quaternary structure (monomer/dimer) by AUC” value is given as “monomers; also recorded: monomeric DPP-IV”.

B6: 724A: DPP-IV C-terminal loop mutant, V724 substituted with Alanine (protein)
chain: B1 chain with V686A, E712H
With B6, in the series with DPP-IV (setting [6]), the Km stood at 87.5 µM and the kcat is reported as 48.3 s − 1. Moreover, in the series on DPP-IV (setting [7]), the Km was 76.4 µM and the kcat came to 0.5 s − 1. Also, the “quaternary structure (monomer/dimer) by AUC” value in series [1] was “mixture with both monomers and dimers”.

B7: Y248A: DPP-IV propeller loop mutant, Y248 substituted with Alanine (protein)
chain: B1 chain with Y210A, E712H
With B7, in the series with DPP-IV (setting [8]), the Km came out at 7 µM and the kcat came to 0.01 S^−1. Besides, the “quaternary structure (monomer/dimer) by AUC” value in series [1] is “resulted in monomers; also recorded: monomer”.

B8: H750A dimer: dimer of H750A DPP-IV separated by gel filtration (protein)
chain: B1 chain with E712A
As to B8, in the series on DPP-IV (setting [4]), the Km was found to be 79 µM and the kcat was 73 s⁻¹. Besides, in series [1] (High salt buffer), the “Sedimentation coefficient (s20, w)” value stood at 5.0 S and the “Stokes' radius (Rs)” value is reported as 4.9^b nm. Further, in series [1] (PBS buffer), the “Anhydrous frictional ratio (f/fo)” value came out at 1.4; the “Sedimentation coefficient (s20, w)” value is 8.5 S and 8.4 S; the “Stokes' radius (Rs)” value was 5.1^b nm. Further, the “Stokes' radius (Rs)” value in series [2] is recorded as 5.7^a nm.

B9: 734A: DPP-IV C-terminal loop mutant, W734 substituted with Alanine (protein)
chain: B1 chain with W696A, E712H
As to B9, in the series with DPP-IV (setting [7]), the Km was found to be 90.5 µM and the kcat is reported as 0.3 s − 1. Also, in series [1], the “quaternary structure (monomer/dimer) by AUC” value was “monomers”.

B10: F713R: DPP-IV mutant, F713 substituted with Arginine (protein)
chain: B1 chain with F675R, E712H
B10: in the series with DPP-IV (setting [8]), the Km amounted to 784 µM and the kcat is 2.3 S^−1. In addition, in series [1], the “quaternary structure (monomer/dimer) by AUC” value was “monomeric DPP-IV; also recorded: monomers”.

B11: DPP 8: member of the DPP-IV family of prolyl dipeptidases (protein)
chain: MAAAMETEQLGVEIFETADCEENIESQDRPKLEPFYVERYSWSQLKKLLADTRKYHGYMMAKAPHDFMFVKRNDPDGPHSDRIYYLAMSGENRENTLFYSEIPKTINRAAVLMLSWKPLLDLFQATLDYGMYSREEELLRERKRIGTVGIASYDYHQGSGTFLFQAGSGIYHVKDGGPQGFTQQPLRPNLVETSCPNIRMDPKLCPADPDWIAFIHSNDIWISNIVTREERRLTYVHNELANMEEDARSAGVATFVLQEEFDRYSGYWWCPKAETTPSGGKILRILYEENDESEVEIIHVTSPMLETRRADSFRYPKTGTANPKVTFKMSEIMIDAEGRIIDVIDKELIQPFEILFEGVEYIARAGWTPEGKYAWSILLDRSQTRLQIVLISPELFIPVEDDVMERQRLIESVPDSVTPLIIYEETTDIWINIHDIFHVFPQSHEEEIEFIFASECKTGFRHLYKITSILKESKYKRSSGGLPAPSDFKCPIKEEIAITSGEWEVLGRHGSNIQVDEVRRLVYFEGTKDSPLEHHLYVVSYVNPGEVTRLTDRGYSHSCCISQHCDFFISKYSNQKNPHCVSLYKLSSPEDDPTCKTKEFWATILDSAGPLPDYTPPEIFSFESTTGFTLYGMLYKPHDLQPGKKYPTVLFIYGGPQVQLVNNRFKGVKYFRLNTLASLGYVVVVIDNRGSCHRGLKFEGAFKYKMGQIEIDDQVEGLQYLASRYDFIDLDRVGIHGWSYGGYLSLMALMQRSDIFRVAIAGAPVTLWIFYDTGYTERYMGHPDQNEQGYYLGSVAMQAEKFPSEPNRLLLLHGFLDENVHFAHTSILLSFLVRAGKPYDLQIYPQERHSIRVPESGEHYELHLLHYLQENLGSRIAALKVI
Consider B11, for which the “quaternary structure (monomer/dimer) by AUC” value in series [1] is “is a dimer; also recorded: exists as a dimer”.
